# Source: paper doi:10.1101/2020.10.02.324624
# Molecular target: AmvR (Acinetobacter baumannii ATCC17978)
# Assay: SEC
substance,measurement,value
AmvR (natural protein),stoichiometry N,2
